The target of experiment [1] is T1, human PD-L1.his Protein (human, UniProt Q9NZQ7 19-238, limits assumed).
T1 construct: Produced in-house (Genscript); also called HuPD-L1-his; not shown: his tag
Kind of experiment: ELISA, coated human PD-L1.his, absorbance at 450 nm; lower table. For orientation: ELISA stands for enzyme-linked immunosorbent assay.

The target in experiment [2] is T1, human PD-L1.his Protein. Kind of experiment: ELISA, coated human PD-L1.his, absorbance at 450 nm; upper table.
Experiment [3] deals with T1, human PD-L1.his Protein. Kind of experiment: SPR Biacore T200, antibody Fc-captured, antigen as analyte. The protocol: The affinity of purified antibody binding to antigen was individually determined using a Surface Plasmon Resonance (SPR) biosensor, BiacoreT200 (GE Healthcare). Antibodies were immobilized on the sensor chip through Fc capture method. Antigen was used as the analyte. The data of dissociation (kd) and association (ka) rate constants were obtained using Biacore T200 evaluation software. The equilibrium dissociation constants (KD) were calculated from the ratio of kd over ka.
A general note: Surface plasmon resonance follows binding to a sensor surface in real time, without labels.

Experiment [4] deals with T2, human PD-L1 on CHO cells (human, UniProt Q9NZQ7 19-290). Put plainly: cell-based or functional assay.
Experiment [5] deals with T1, human PD-L1.his Protein. Kind of experiment: GATOR instrument kinetics, HuPD-L1-his; reference parental antibody AHP01679.
Experiment [6] has as its target T1, human PD-L1.his Protein. Put plainly: ELISA, coated human PD-L1.his, absorbance at 450 nm.
Experimental: To evaluate the fully human IgGs binding activity to human PD-L1 protein, ELISA EC50 determination was performed. Briefly, human PD-L1.his protein was coated with 0.5 μg/ml in CBS, 100 μl/well at 4° C., incubated for overnight. Washed three times and blocking with 3% BSA-PBS at 37° C. for 1 hour. Then diluted fully human IgGs in 1% BSA-PBS were added to the blocked wells. […] Incubation at room temperature for 2 hours. […] The plates were washed for additional 6 times and the substrate solution were added to the wells for developing reaction. The absorption was measured at 450nm using a spectrometer.
Experiment [7] has as its target T1, human PD-L1.his Protein. Put plainly: GATOR instrument kinetics, HuPD-L1-his.
Experiment [8] has as its target T2, human PD-L1 on CHO cells. Put plainly: cell-based or functional assay. The source holds these as a separate data set.

Residue numbers refer to the chain shown, from its start.

In general, Kd refers to the free concentration of one partner at which half of the binding sites on the other are occupied at equilibrium, for simple one-to-one binding. A low value points to a tighter complex. The term koff denotes a measure of how fast the partners let go of each other. Low values mean a long-lived complex, high ones a short-lived complex. One may read the kon as a measure of how fast the partners come together. Higher therefore signals fast association. Broadly, the EC50 is the concentration needed to bring the measured effect to its halfway point. Low values mean an effect from little substance, high ones a need for much substance.

T2 sequence (Q9NZQ7 19-290): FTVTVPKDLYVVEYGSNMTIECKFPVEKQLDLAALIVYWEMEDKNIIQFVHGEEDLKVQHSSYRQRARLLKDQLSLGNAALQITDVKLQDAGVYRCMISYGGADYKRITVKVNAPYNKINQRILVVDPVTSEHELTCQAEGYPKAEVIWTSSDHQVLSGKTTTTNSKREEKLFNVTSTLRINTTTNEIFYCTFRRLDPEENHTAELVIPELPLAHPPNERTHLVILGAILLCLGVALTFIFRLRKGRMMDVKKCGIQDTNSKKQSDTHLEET
T1 sequence (Q9NZQ7 19-238 limits assumed): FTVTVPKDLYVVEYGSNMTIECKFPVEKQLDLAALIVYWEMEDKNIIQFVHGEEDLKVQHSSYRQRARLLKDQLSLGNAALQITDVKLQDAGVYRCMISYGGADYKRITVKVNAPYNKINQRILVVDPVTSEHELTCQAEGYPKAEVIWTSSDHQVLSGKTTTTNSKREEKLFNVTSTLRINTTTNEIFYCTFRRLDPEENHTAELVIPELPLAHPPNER

negative control human IgG (antibody): in experiment [1], the absorbance at 0.00564503 ng/ml was 0.058, the absorbance at 0.01693509 ng/ml stood at 0.067, the absorbance at 0.05080526 ng/ml worked out at 0.061 and the absorbance at 0.15241579 ng/ml turned out to be 0.064. In experiment [1], this molecule returned an absorbance at 0.45724737 ng/ml of 0.057, an absorbance at 1.37174211 ng/ml of 0.065, an absorbance at 12.345679 ng/ml of 0.064 and an absorbance at 37.037037 ng/ml of 0.059. For the same molecule, in experiment [1], the absorbance at 111.111111 ng/ml was determined as 0.067, the absorbance at 333.333333 ng/ml was 0.059 and the absorbance at 1000 ng/ml turned out to be 0.081. Further, in experiment [2], the absorbance at 1.3717 ng/ml was 0.078, the absorbance at 4.1152 ng/ml is 0.052, the absorbance at 37.0370 ng/ml turned out to be 0.052 and the absorbance at 111.1111 ng/ml stood at 0.054. In experiment [2], the absorbance at 333.3333 ng/ml was found to be 0.058, the absorbance at 1000 ng/ml stood at 0.069 and the absorbance at 3000 ng/ml was 0.121.

B1: AHP01679 (antibody, human IgG1, lambda, V domains shown)
VH: EVQLVQSGAEVKKPGSSVKVSCKASGGTFSSYAISWVRQAPGQGLEWMGRIIPILGIANYAQKFQGRVTITADKSTSTAYMELSSLRSEDTAVYYCTTFIQQWLYAFDIWGQGTMVTVSS
VL: QAVLTQPSSVSGAPGQRVTISCTGSSSNIGAGYDVHWYQQLPGTAPKLLIYGNNNRPSGVPDRFSGSKSGTSASLAITGLQAEDEADYYCQSYDSSLSGSVFGGGTKLTVLG
notes: Fully human full-length IgG (IgG1 constant region, lambda light chain); also called Parental Ab; parental antibody
With B1, in experiment [3], the Kd was 4090 pM, the koff came out at 0.00259 s⁻¹ and the kon was found to be 635000 M⁻¹ s⁻¹. Further, in experiment [4], the “EC50 (read off the curve), PD-1/PD-L1 blockade luciferase reporter assay [panel E]” value was about 0.2 µg/mL and the “EC50, PD-1/PD-L1 blockade luciferase reporter assay [panel E]” value came out at 0.153 µg/mL. Besides, the “KD (Parental Ab)/KD (Candidate Ab)” value in experiment [5] is 1 fold. Further, in experiment [6], the EC50 was determined as 0.00334 µg/mL. In experiment [7], this molecule registered a Kd of 351 pM, a koff of 0.00132 s⁻¹ and a kon of 3.77e+06 M⁻¹ s⁻¹. Besides, in experiment [8], the “EC50 (assay not named; EC50 is defined in paragraph 62 as the concentration of antibody required to block binding of PD-1/PD-L1 by 50%)” value is 0.163 µg/mL.

B2: QJ001-45 (antibody, human IgG1, lambda, V domains shown)
VH: B1 VH with I100F
VL: B1 VL with T23F, Q91G
notes: also called P02897
For B2, the “KD (Parental Ab)/KD (Candidate Ab)” value in experiment [5] amounted to 10.4 fold. For the same molecule, in experiment [7], the Kd is 33.8 pM, the koff was determined as 0.000145 s⁻¹ and the kon stood at 4.29e+06 M⁻¹ s⁻¹. The “EC50 (assay not named; EC50 is defined in paragraph 62 as the concentration of antibody required to block binding of PD-1/PD-L1 by 50%)” value in experiment [8] worked out at 0.0966 µg/mL.

The values are drawn from US20250223361A1 (MABTREE BIOLOGICS, published 2025).
